Reference: patent US20250043302A1, “MUTATED HYDROXYPHENYLPYRUVATE DIOXYGENASE POLYPEPTIDE, AND CODING GENE AND USE THEREOF” (BEIJING DABEINONG BIOTECHNOLOGY CO., LTD., priority 2021, published 2025)

Key:
Assay type in all cases: in vivo
[1] = test system: Arabidopsis thaliana T1 plants; experiment: Topramezone tolerance of transgenic Arabidopsis thaliana T1 plants (spray, bleached leaf area grade, damage score); details: for Classification and statistics of the grade of pesticide damage: Grade 0 / Classification and statistics of the grade of pesticide damage: Grade 1 / Classification and statistics of the grade of pesticide damage: Grade 2 / Classification and statistics of the grade of pesticide damage: Grade 3: number of plants; for Grade 0 (classification and statistics of the grade of pesticide damage; number of plants) / Grade 1 (classification and statistics of the grade of pesticide damage; number of plants) / Grade 2 (classification and statistics of the grade of pesticide damage; number of plants) / Grade 3 (classification and statistics of the grade of pesticide damage; number of plants): 16 plants
Excerpt: T1 transformants were initially selected from the untransformed seeds using a glufosinate selection scheme. The Arabidopsis thaliana T1 plants (AsHPPD-02) into which the AsHPPD-02 nucleotide sequence was introduced, the Arabidopsis thaliana T1 plants (AsHPPDm-F372A-02) into which the AsHPPDm-F372A-02 nucleotide sequence was introduced, the Arabidopsis thaliana T1 plants (AsHPPDm-F383W-02) into which the AsHPPDm-F383W-02 nucleotide sequence was introduced, the Arabidopsis thaliana T1 plants (AsHPPDm-F372A-F383W-02) into which the AsHPPDm-F372A-F383W-02 nucleotide sequence was introduced, the Arabidopsis thaliana T1 plants (DBN11726N) into which the control recombinant expression vector DBN11726N was introduced, and the wild-type Arabidopsis thaliana plants (CK) (18 days after sowing) were sprayed respectively with topramezone at three concentrations (100 g ai/ha (four-fold field concentration, 4×), 200 g ai/ha (eight-fold field concentration, 8×), and 0 g ai/ha (water, 0×)), isoxaflutole at three concentrations (140 g ai/ha (two-fold field concentration, 2×), 280 g ai/ha (four-fold field concentration, 4×), and 0 g ai/ha (water, 0×)), and mesotrione at three concentrations (210 g ai/ha (two-fold field concentration, […]), 420 g ai/ha (four-fold field concentration, 4×), and 0 g ai/ha (water, 0×)), to determine the tolerance of Arabidopsis thaliana to the herbicides. The degree of damage caused by the herbicide was measured for each plant according to the proportion of bleached leaf area (the proportion of bleached leaf area=bleached leaf area/total leaf area×100%) 7 days after spraying (7 DAT): the case where there is basically no bleached phenotype is defined as grade 0, the case where the proportion of bleached leaf area is less than 50% is defined as grade 1, the case where the proportion of bleached leaf area is more than 50% is defined as grade 2, and the case where the proportion of bleached leaf area is 100% grade is defined as grade 3.
According to the method as described above in point 6 of Example 1, the aforementioned Arabidopsis thaliana T1 plants and wild-type Arabidopsis thaliana plants (CK) (18 days after sowing) were sprayed respectively with topramezone at three concentrations (25 g ai/ha (one-fold field concentration, 1×). 100 g ai/ha (four-fold field concentration, 4×), and 0 g ai/ha (water, 0×)), isoxaflutole at three concentrations (35 g ai/ha (half-fold field concentration, 0.5×). 70 g ai/ha (one-fold field concentration, 1×), and 0 g ai/ha (water, 0×)), and mesotrione at three concentrations (52.5 g ai/ha (half-fold field concentration, 0.5×), 105 g ai/ha (one-fold field concentration, 1×), and 0 g ai/ha (water, 0×)) to detect the tolerance of Arabidopsis thaliana to the herbicides.
According to the method as described above in point 6 of Example 1, the aforementioned Arabidopsis thaliana T1 plants and wild-type Arabidopsis thaliana plants (CK) (18 days after sowing) were sprayed with topramezone at three different concentrations (i.e., 100 g ai/ha (four-fold field concentration, 4×), 200 g ai/ha (eight-fold field concentration, 8×) and 0 g ai/ha (water, 0×)), isoxaflutole at three different concentrations (i.e., 140 g ai/ha (two-fold field concentration, 2×), 280 g ai/ha (four-fold field concentration, 4×) and 0 g ai/ha (water, 0×)), and mesotrione at three different concentrations (i.e., 210 g ai/ha (two-fold field concentration, 2×), 420 g ai/ha (four-fold field concentration, 4×) and 0 g ai/ha (water, 0×)) respectively to detect the herbicide tolerance of Arabidopsis thaliana. […]

[2] = test system: Arabidopsis thaliana T1 plants; experiment: Mesotrione tolerance of transgenic Arabidopsis thaliana T1 plants (spray, bleached leaf area grade, damage score); design: Scores: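 damage score 0-100 computed as Σ(N×S)/(T×M)×100 over grades 0-3 with higher meaning more damage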; details: for Resistance evaluation / Classification and statistics of the grade of pesticide damage: Grade 0 / Classification and statistics of the grade of pesticide damage: Grade 1 / Classification and statistics of the grade of pesticide damage: Grade 2 / Classification and statistics of the grade of pesticide damage: Grade 3 / Scores: 7 DAT, Table 3; for Classification and statistics of the grade of pesticide damage: Grade 0 / Classification and statistics of the grade of pesticide damage: Grade 1 / Classification and statistics of the grade of pesticide damage: Grade 2 / Classification and statistics of the grade of pesticide damage: Grade 3: number of plants; for Scores: pesticide damage score 0-100
Procedure, shortened: (§1)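 Damage was assessed by bleaching grade (0 none; 1 <50%; 2 >50%; 3 100% of leaf area) one week after spraying. Sprays on 18-day-old T1 and wild-type plants used field-rate multiples: topramezone 25–200, isoxaflutole 35–280, mesotrione 52.5–420 g ai/ha.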

[3] = test system: Arabidopsis thaliana T1 plants; experiment: Isoxaflutole tolerance of transgenic Arabidopsis thaliana T1 plants (spray, bleached leaf area grade, damage score); details: for Grade 0 (classification and statistics of the grade of pesticide damage; number of plants) / Grade 1 (classification and statistics of the grade of pesticide damage; number of plants) / Grade 2 (classification and statistics of the grade of pesticide damage; number of plants) / Grade 3 (classification and statistics of the grade of pesticide damage; number of plants): 16 plants; for Classification and statistics of the grade of pesticide damage: Grade 0 / Classification and statistics of the grade of pesticide damage: Grade 1 / Classification and statistics of the grade of pesticide damage: Grade 2 / Classification and statistics of the grade of pesticide damage: Grade 3: number of plants;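 for Scores: Weighted damage index from 0 to 100 where higher means more damage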
Procedure, shortened: as §1

[4] = topramezone 100 g ai/ha (4×), 7 DAT, Table 1
[5] = topramezone 200 g ai/ha (8×), 7 DAT, Table 1
[6] = topramezone 100 g ai/ha (4x field concentration), Arabidopsis thaliana T1 plants
[7] = topramezone 200 g ai/ha (8x field concentration), Arabidopsis thaliana T1 plants
[8] = mesotrione 210 g ai/ha (two-fold field concentration)
[9] = isoxaflutole 140 g ai/ha (2x field concentration), Arabidopsis thaliana T1 plants
[10] = isoxaflutole 140 g ai/ha (2×), 7 DAT, Table 2
[11] = isoxaflutole 280 g ai/ha (4x field concentration), Arabidopsis thaliana T1 plants
[12] = isoxaflutole 280 g ai/ha (4×), 7 DAT, Table 2

B1: AsHPPDm-F383W-02: nucleotide sequence encoding Avena sativa HPPD with F383W; vector DBN11729 (nucleic acid)
DNA: ATGCCACCTACTCCAGCTACAGCTACTGGTGCTGCTGCTGCTGCCGTTACTCCTGAGCACGCTGCCAGGTCATTCCCCAGGGTGGTTCGCGTGAACCCCAGATCTGATAGGTTCCCAGTTCTGAGCTTCCACCATGTTGAGCTGTGGTGCGCTGATGCTGCTTCTGCTGCTGGCAGGTTCTCTTTCGCTCTTGGTGCTCCACTCGCTGCTAGATCTGATCTGTCTACAGGAAATAGCGCTCATGCCTCACTCCTGCTTCGCTCAGGTGCTTTGGCCTTCCTCTTCACCGCTCCATATGCTCCCCCACCTCAGGAGGCTGCTACTGCTGCTGCTACAGCCTCCATTCCAAGCTTCTCAGCTGATGCCGCTAGAACCTTCGCTGCTGCTCATGGACTTGCCGTGAGGTCTGTTGGTGTTCGCGTGGCTGATGCTGCTGAGGCTTTCAGAGTTTCCGTTGCCGGCGGAGCTAGGCCAGCTTTCGCTCCTGCTGATTTGGGACATGGTTTCGGCCTGGCTGAGGTTGAGCTTTACGGTGACGTGGTTCTCCGCTTCGTGTCTTACCCAGATGAGACTGACCTGCCTTTCCTTCCCGGCTTCGAGAGAGTTTCCTCTCCTGGTGCCGTGGATTACGGCCTGACAAGGTTCGACCACGTGGTTGGAAACGTTCCCGAGATGGCTCCAGTGATCGATTACATGAAGGGCTTCCTTGGATTCCATGAGTTCGCCGAGTTCACTGCTGAGGACGTGGGAACCACTGAGTCCGGTTTGAACTCTGTGGTTCTCGCCAACAATTCTGAGGCTGTTTTGCTCCCTCTGAATGAGCCTGTGCATGGAACCAAGAGGAGAAGCCAGATTCAAACTTACCTGGAGTACCACGGTGGCCCTGGAGTTCAGCATATCGCCCTTGCTTCTAATGATGTGTTGCGCACACTCAGAGAGATGCGCGCCAGAACCCCCATGGGAGGTTTCGAGTTCATGGCCCCACCACAGGCTAAGTACTACGAGGGCGTTAGAAGGATTGCTGGAGACGTGTTGAGCGAGGAGCAGATCAAGGAGTGCCAAGAGCTGGGTGTTCTTGTGGATAGGGATGACCAGGGCGTTCTGCTTCAAATTTTCACTAAGCCAGTGGGCGACCGCCCTACATTCTGGCTTGAGATGATTCAAAGAATCGGCTGCATGGAGAAGGATGAGGTTGGACAGGAGTACCAAAAGGGCGGATGCGGTGGCTTCGGAAAGGGTAACTTCAGCGAGTTGTTCAAGTCAATCGAGGACTACGAGAAGAGCCTCGAGGTGAAGCAGTCAGTGGTTGCCCAAAAGTCCTGA
modifications: AsHPPDm-F383W-02 Nucleotide Sequence
notes: vector DBN11729
Classification and statistics of the grade of pesticide damage: Grade 0 [1, 4]: 16
Classification and statistics of the grade of pesticide damage: Grade 1 [1, 4]: 0
Classification and statistics of the grade of pesticide damage: Grade 2 [1, 4]: 0
Classification and statistics of the grade of pesticide damage: Grade 3 [1, 4]: 0
Classification and statistics of the grade of pesticide damage: Grade 0 [1, 5]: 16
Classification and statistics of the grade of pesticide damage: Grade 1 [1, 5]: 0
Classification and statistics of the grade of pesticide damage: Grade 2 [1, 5]: 0
Classification and statistics of the grade of pesticide damage: Grade 3 [1, 5]: 0
Scores ([1]; pesticide damage score 0-100, topramezone 100 g ai/ha (4×), 7 DAT, Table 1): 0
Scores ([1]; pesticide damage score 0-100, topramezone 200 g ai/ha (8×), 7 DAT, Table 1): 0
Resistance evaluation [1, 6]: Highly resistant
Scores [1, 6]: 0
Grade 0 (classification and statistics of the grade of pesticide damage; number of plants) [1, 6]: 16
Grade 1 (classification and statistics of the grade of pesticide damage; number of plants) [1, 6]: 0
Grade 2 (classification and statistics of the grade of pesticide damage; number of plants) [1, 6]: 0
Grade 3 (classification and statistics of the grade of pesticide damage; number of plants) [1, 6]: 0
Resistance evaluation [1, 4]: highly resistant (highly resistant plants (scores 0-15))
Resistance evaluation [1, 7]: Highly resistant
Scores [1, 7]: 0
Grade 0 (classification and statistics of the grade of pesticide damage; number of plants) [1, 7]: 16
Grade 1 (classification and statistics of the grade of pesticide damage; number of plants) [1, 7]: 0
Grade 2 (classification and statistics of the grade of pesticide damage; number of plants) [1, 7]: 0
Grade 3 (classification and statistics of the grade of pesticide damage; number of plants) [1, 7]: 0
Resistance evaluation [1, 5]: highly resistant (highly resistant plants (scores 0-15))
tolerance to topramezone (resistance class) ([1]; topramezone at four-fold or eight-fold field concentration): highly-resistant
tolerance to mesotrione (in words) ([2]; in vivo): different degrees of tolerance
Resistance evaluation [2, 8]: moderately
Resistance evaluation ([2]; mesotrione 420 g ai/ha (4×)): poorly resistant (poorly resistant plants (scores 34-67))
tolerance to mesotrione (resistance class) ([2]; mesotrione at four-fold field concentration): poorly-resistant
tolerance to mesotrione (resistance class) ([2]; mesotrione at two-fold field concentration): moderately-resistant
Classification and statistics of the grade of pesticide damage: Grade 0 [2, 8]: 4
Classification and statistics of the grade of pesticide damage: Grade 1 [2, 8]: 10
Classification and statistics of the grade of pesticide damage: Grade 2 [2, 8]: 1
Classification and statistics of the grade of pesticide damage: Grade 3 [2, 8]: 1
Classification and statistics of the grade of pesticide damage: Grade 0 ([2]; mesotrione 420 g ai/ha (4×)): 0
Classification and statistics of the grade of pesticide damage: Grade 1 ([2]; mesotrione 420 g ai/ha (4×)): 2
Classification and statistics of the grade of pesticide damage: Grade 2 ([2]; mesotrione 420 g ai/ha (4×)): 14
Classification and statistics of the grade of pesticide damage: Grade 3 ([2]; mesotrione 420 g ai/ha (4×)): 0
Scores [2, 8]: 31
Scores ([2]; mesotrione 420 g ai/ha (4×)): 63
tolerance to isoxaflutole (in words) ([3]; in vivo): different degrees of tolerance
Resistance evaluation [3, 9]: Moderately
Scores [3, 9]: 21
Grade 0 (classification and statistics of the grade of pesticide damage; number of plants) [3, 9]: 6
Grade 1 (classification and statistics of the grade of pesticide damage; number of plants) [3, 9]: 10
Grade 2 (classification and statistics of the grade of pesticide damage; number of plants) [3, 9]: 0
Grade 3 (classification and statistics of the grade of pesticide damage; number of plants) [3, 9]: 0
Resistance evaluation [3, 10]: moderately
Resistance evaluation [3, 11]: Poorly resistant
Scores [3, 11]: 42
Grade 0 (classification and statistics of the grade of pesticide damage; number of plants) [3, 11]: 4
Grade 1 (classification and statistics of the grade of pesticide damage; number of plants) [3, 11]: 4
Grade 2 (classification and statistics of the grade of pesticide damage; number of plants) [3, 11]: 8
Grade 3 (classification and statistics of the grade of pesticide damage; number of plants) [3, 11]: 0
Resistance evaluation [3, 12]: poorly resistant (poorly resistant plants (scores 34-67))
tolerance to isoxaflutole (resistance class) ([3]; isoxaflutole at four-fold field concentration): poorly-resistant
tolerance to isoxaflutole (resistance class) ([3]; isoxaflutole at two-fold field concentration): moderately-resistant
Classification and statistics of the grade of pesticide damage: Grade 0 [3, 10]: 6
Classification and statistics of the grade of pesticide damage: Grade 1 [3, 10]: 10
Classification and statistics of the grade of pesticide damage: Grade 2 [3, 10]: 0
Classification and statistics of the grade of pesticide damage: Grade 3 [3, 10]: 0
Classification and statistics of the grade of pesticide damage: Grade 0 [3, 12]: 4
Classification and statistics of the grade of pesticide damage: Grade 1 [3, 12]: 4
Classification and statistics of the grade of pesticide damage: Grade 2 [3, 12]: 8
Classification and statistics of the grade of pesticide damage: Grade 3 [3, 12]: 0
Scores ([3]; pesticide damage score 0-100, isoxaflutole 140 g ai/ha (2×), 7 DAT, Table 2): 21
Scores ([3]; pesticide damage score 0-100, isoxaflutole 280 g ai/ha (4×), 7 DAT, Table 2): 42
